Test results from patent US20160176924A1, “MODIFIED PEPTIDES AS POTENT INHIBITORS OF THE PSD-95/NMDA RECEPTOR INTERACTION” (priority 2008, published 2016).

Experiments:
Assay in all cases: FP competition, fluorescent NR2B probe
[1] = molecular target: HIS-PDZ2 protein (PSD-95 PDZ2, residues 155-249, with tag …) (human) (UniProt P78352)
[2] = molecular target: HIS-PDZ1 protein (PSD-95 PDZ1, residues 61-151, with tag …) (human) (UniProt P78352)
[3] = molecular target: HIS-PDZ1-2 protein (PSD-95 PDZ1-2 tandem, residues 61-249, with tag …) (human) (UniProt P78352)

## ESDV (8) with D-Glu instead of L-Glu (peptide)
[1]
  fold impairment of affinity relative to peptide 1: > 25 fold
[2]
  fold impairment of affinity relative to peptide 1: > 25 fold

## SDV (9) (peptide)
[1]
  fold increase in Ki compared to peptide 1: > 30 fold
[2]
  fold increase in Ki compared to peptide 1: > 20 fold

## TAV (49) (peptide)
[1]
  Ki: 37 µM
[2]
  Ki: 42 µM

## Tat-NR2B (3) (peptide)
[1]
  Ki: 4.4 µM
[3]
  Ki: 9.8 µM
[2]
  Ki: 14 µM
